The supplement of paper PMC9233669
Fewer inactive variants are shown than the library holds.

What was measured:
biotinyl-Phe-oxazolone = test: self-aminoacylation, catalytic enhancement (BFO) (fold over background); higher = more active; k-Seq, kA / k0A0; sequences stand for … in GGGAAUGGAUCCACAUCUACGAAUUC…UUCACUGCAGACUUGACGAAGCUG
How it was run: (§1)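 Mutagenized RNA pools with a 21-nt variable region (0.43 μM) were reacted with each biotinyl-aminoacyl-oxazolone at 2–1250 μM for 90 minutes at room temperature, in 50 μL HEPES/NaCl/KCl/MgCl2/CaCl2 buffer containing 5% acetonitrile at pH 6.9–7.0. RNA captured on streptavidin was quantified by triplicate qPCR and by Illumina sequencing. The fraction reacted for each sequence was fit to a pseudo-first-order model with bootstrapping, and catalytic enhancement is the median kA divided by the uncatalyzed rate, taken as the low-activity peak of a bimodal Gaussian fit.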

biotinyl-Ile-oxazolone = test: self-aminoacylation, catalytic enhancement (BIO) (fold over background); higher = more active; k-Seq, kA / k0A0; sequences stand for … in GGGAAUGGAUCCACAUCUACGAAUUC…UUCACUGCAGACUUGACGAAGCUG
How it was run: as §1

biotinyl-Met-oxazolone = test: self-aminoacylation, catalytic enhancement (BMO) (fold over background); higher = more active; k-Seq, kA / k0A0; sequences stand for … in GGGAAUGGAUCCACAUCUACGAAUUC…UUCACUGCAGACUUGACGAAGCUG
How it was run: as §1

biotinyl-Val-oxazolone = test: self-aminoacylation, catalytic enhancement (BVO) (fold over background); higher = more active; k-Seq, kA / k0A0; sequences stand for … in GGGAAUGGAUCCACAUCUACGAAUUC…UUCACUGCAGACUUGACGAAGCUG
How it was run: as §1

biotinyl-Leu-oxazolone = test: self-aminoacylation, catalytic enhancement (BLO) (fold over background); higher = more active; k-Seq, kA / k0A0; sequences stand for … in GGGAAUGGAUCCACAUCUACGAAUUC…UUCACUGCAGACUUGACGAAGCUG
How it was run: as §1

biotinyl-Trp-oxazolone = test: self-aminoacylation, catalytic enhancement (BWO) (fold over background); higher = more active; k-Seq, kA / k0A0; sequences stand for … in GGGAAUGGAUCCACAUCUACGAAUUC…UUCACUGCAGACUUGACGAAGCUG
How it was run: as §1

Sequence	self-aminoacylation (biotinyl-Phe-oxazolone)	self-aminoacylation (biotinyl-Ile-oxazolone)	self-aminoacylation (biotinyl-Met-oxazolone)	self-aminoacylation (biotinyl-Val-oxazolone)	self-aminoacylation (biotinyl-Leu-oxazolone)	self-aminoacylation (biotinyl-Trp-oxazolone)
CUACGUCAAACAAACGGUCUG [Fam1A.1 aminoacylation ribozyme variant]	0.89	1.06	1.08	1.03	1.16	0.904
CUACGUCACACAAUCGGUCUG [Fam1A.1 aminoacylation ribozyme variant]	0.794	0.999	0.943	0.962	0.98	0.986
CUACGUCAGACAAUCGGUCUG [Fam1A.1 aminoacylation ribozyme variant]	1.67	1.61	1.86	1.42	1.28	0.99
CUACGUCGAACAAUCGGUCUG [Fam1A.1 aminoacylation ribozyme variant]	4.04	1.7	1.91	1.93	1.83	1.3
CUACUACAAACAAUCAGUCUG [Fam1A.1 aminoacylation ribozyme variant]	0.88	0.657	0.467	0.732	0.7	0.554
CUACUACAAACAAUCGGACUG [Fam1A.1 aminoacylation ribozyme variant]	0.703	0.852	0.695	0.769	0.582	0.469
CUACUACAAACAAUCGGGCUG [Fam1A.1 aminoacylation ribozyme variant]	0.456	1.16	0.989	1.05	1.07	0.83
CUACUACAAACCAUCGGUCUG [Fam1A.1 aminoacylation ribozyme variant]	0.739	0.837	0.845	0.822	0.702	0.765
CUACUACAUACAAUCGGUCUG [Fam1A.1 aminoacylation ribozyme variant]	0.703	0.812	0.901	0.782	0.641	0.58
CUACUCCAAAAAAUCGGUCUG [Fam1A.1 aminoacylation ribozyme variant]	1.33	0.894	0.674	0.846	0.857	1.06
CUACUCCAAACAAUCCGUCUG [Fam1A.1 aminoacylation ribozyme variant]	0.642	0.838	0.636	0.821	0.759	0.582
CUACUCCAAACAAUCGGGCUG [Fam1A.1 aminoacylation ribozyme variant]	1.02	1.36	1.61	1.01	1.29	1.14
CUACUCUUCAAGCAAUCGGUC [Fam1B.1 aminoacylation ribozyme variant]	25.4	0.859	0.904	0.924	1.07	11
CUACUGCAAACAAUCCGUCUG [Fam1A.1 aminoacylation ribozyme variant]	1.27	0.953	0.806	0.801	0.817	0.876
CUACUGCAAACAAUCGGUCUC [Fam1A.1 aminoacylation ribozyme variant]	0.785	0.855	0.916	0.885	0.716	0.681
CUACUGCAAACAAUCGGUCUU [Fam1A.1 aminoacylation ribozyme variant]	1.06	0.974	0.963	0.836	0.953	0.857
CUACUGCAAACAAUGGGUCUG [Fam1A.1 aminoacylation ribozyme variant]	1.5	1.25	1.2	1.08	1.13	1.12
CUACUGCAACCAAUCGGUCUG [Fam1A.1 aminoacylation ribozyme variant]	0.691	0.53	0.585	0.567	0.495	0.608
CUACUGCUAACAAUCGGUCUG [Fam1A.1 aminoacylation ribozyme variant]	0.437	0.538	0.491	0.559	0.597	0.418
CUACUUAAAACAAUAGGUCUG [Fam1A.1 aminoacylation ribozyme variant]	0.984	0.928	1.15	0.934	0.893	0.747
CUACUUAAAACAAUCCGUCUG [Fam1A.1 aminoacylation ribozyme variant]	0.461	0.799	0.876	0.905	0.756	0.547
CUACUUAAAACAAUCGGGCUG [Fam1A.1 aminoacylation ribozyme variant]	0.623	1.31	1.05	1.02	0.999	0.924
CUACUUAAAACACUCGGUCUG [Fam1A.1 aminoacylation ribozyme variant]	0.731	0.992	0.758	0.792	0.882	0.762
CUACUUAAAACCAUCGGUCUG [Fam1A.1 aminoacylation ribozyme variant]	1.22	0.927	1.1	0.923	0.846	1.36
CUACUUAAACCAAUCGGUCUG [Fam1A.1 aminoacylation ribozyme variant]	0.538	0.88	0.693	0.67	0.594	0.473
CUACUUAAUACAAUCGGUCUG [Fam1A.1 aminoacylation ribozyme variant]	0.835	0.782	0.89	0.849	0.761	0.631

Sequence	self-aminoacylation (biotinyl-Phe-oxazolone)	self-aminoacylation (biotinyl-Ile-oxazolone)	self-aminoacylation (biotinyl-Met-oxazolone)	self-aminoacylation (biotinyl-Val-oxazolone)	self-aminoacylation (biotinyl-Leu-oxazolone)	self-aminoacylation (biotinyl-Trp-oxazolone)
CUACUUCAAAAAAUCGGUCAG [Fam1A.1 aminoacylation ribozyme variant]	3.51	0.845	0.722	0.613	0.653	1.82
CUACUUCAAAAAAUCGGUUUG [Fam1A.1 aminoacylation ribozyme variant]	9.83	1.03	0.73	0.695	0.84	6.33
CUACUUCAAAAAUUCGGUCUG [Fam1A.1 aminoacylation ribozyme variant]	3.5	1.44	1.37	1.45	1.65	1.12
CUACUUCAAACAAAAGGUCUG [Fam1A.1 aminoacylation ribozyme variant]	0.784	0.822	0.624	0.946	0.618	0.592
CUACUUCAAACAAACGUUCUG [Fam1A.1 aminoacylation ribozyme variant]	0.686	0.591	0.529	0.622	0.579	0.591
CUACUUCAAACAAAGGGUCUG [Fam1A.1 aminoacylation ribozyme variant]	0.589	0.756	0.763	0.724	0.567	0.669
CUACUUCAAACAACGGGUCUG [Fam1A.1 aminoacylation ribozyme variant]	0.618	0.937	0.716	0.904	0.627	0.697
CUACUUCAAACAAGCGGUCUA [Fam1A.1 aminoacylation ribozyme variant]	0.85	0.936	0.838	0.707	0.73	0.669
CUACUUCAAACAAUAGGUCAG [Fam1A.1 aminoacylation ribozyme variant]	1.19	0.688	0.602	0.812	0.577	0.568
CUACUUCAAACAAUAGGUCGG [Fam1A.1 aminoacylation ribozyme variant]	0.7	0.792	0.643	0.693	0.754	0.676
CUACUUCAAACAAUAGGUCUA [Fam1A.1 aminoacylation ribozyme variant]	0.832	0.755	0.699	0.776	0.639	0.756
CUACUUCAAACAAUAGGUCUG [Fam1A.1 aminoacylation ribozyme variant]	1.11	0.813	0.696	0.817	0.681	0.617
CUACUUCAAACAAUCCAUCUG [Fam1A.1 aminoacylation ribozyme variant]	1.08	0.656	0.489	0.748	0.546	0.402
CUACUUCAAACAAUCCGGCUG [Fam1A.1 aminoacylation ribozyme variant]	1.01	1.5	1.4	1.78	1.44	0.952
CUACUUCAAACAAUCCUUCUG [Fam1A.1 aminoacylation ribozyme variant]	1.04	0.603	0.577	0.665	0.469	0.528
CUACUUCAAACAAUCGAACUG [Fam1A.1 aminoacylation ribozyme variant]	0.805	0.683	0.617	0.595	0.595	0.468
CUACUUCAAACAAUCGAGCUG [Fam1A.1 aminoacylation ribozyme variant]	0.816	0.85	0.59	0.706	0.481	0.396
CUACUUCAAACAAUCGAUUUG [Fam1A.1 aminoacylation ribozyme variant]	1.26	0.717	0.63	0.657	0.482	0.752
CUACUUCAAACAAUCGCCCUG [Fam1A.1 aminoacylation ribozyme variant]	0.818	1.05	1.19	1.2	0.959	0.581
CUACUUCAAACAAUCGCUCAG [Fam1A.1 aminoacylation ribozyme variant]	1	0.884	0.679	0.689	0.52	0.671
CUACUUCAAACAAUCGGACUA [Fam1A.1 aminoacylation ribozyme variant]	1.13	0.831	0.579	0.744	0.617	0.655
CUACUUCAAACAAUCGGAUUG [Fam1A.1 aminoacylation ribozyme variant]	2.03	0.999	0.953	0.89	0.719	1.3
CUACUUCAAACAAUCGGCCAG [Fam1A.1 aminoacylation ribozyme variant]	1.84	1.44	1.02	1.36	1.19	0.954
CUACUUCAAACAAUCGGCCUC [Fam1A.1 aminoacylation ribozyme variant]	11.8	1.8	1.63	1.88	1.89	7.78
CUACUUCAAACAAUCGGCGUG [Fam1A.1 aminoacylation ribozyme variant]	6.45	3.35	4.44	3.12	6.1	5.22
